Test in all cases: SPR
Assay [1] deals with Human IgG1 Fc, G0 N-glycan (agalactosylated, afucosylated) (human).
Assay [2] concerns the target Human IgG1 Fc, G0F N-glycan (agalactosylated, core-fucosylated) (human).
Assay [3] deals with Human IgG1 Fc, G2F N-glycan (digalactosylated, core-fucosylated) (human).
The target in assay [4] is Human IgG1 Fc, afucosylated, mixed N-glycans (G0, G1 and G2) (human).
Assay [5] deals with Human IgG1 Fc, fucosylated, mixed N-glycans (predominantly G0F/G1F/G2F) (human).

Take “CD16a (Fc γ receptor IIIa), wild type, Man5 glycoform”: the Kd in assay [1] was 2.4 nM; in assay [2], 18 nM; in assay [3], 9.9 nM; in assay [4], 2.5 nM; in assay [5], 57 nM.

“CD16a N38Q/N45Q/N74Q/N169Q, Man5 glycoform (receptor)” gave a Kd in assay [2] of 360 nM.

In the case of “CD16a N38Q/N74Q/N169Q following treatment with Endoglycosidase F1 (N-glycans truncated to a single (1)GlcNAc) (receptor)”, the Kd came to 1.3 nM in assay [1], 2.9 nM in assay [2] and 1.6 nM in assay [3].

“CD16a, wild type, Man9 glycoform (receptor)”: the Kd was 4 nM in assay [4] and 64 nM in assay [5].

For “CD16a, wild type, complex-type glycoform (receptor)”, the Kd is 38 nM in assay [4] and 245 nM in assay [5].

As to “CD16a, wild type, following treatment with Endoglycosidase F1 (N-glycans truncated to a single (1)GlcNAc) (receptor)”, the Kd amounted to 1.7 nM in assay [1], 3.7 nM in assay [2] and 2 nM in assay [3].

As usually defined, the Kd is the free concentration of one partner at which half of the binding sites on the other are occupied at equilibrium, for simple one-to-one binding. A lower Kd goes with a tighter complex.

The values are drawn from publication PMC6415948.
